In US5336488A, “Method of treating or preventing mastitis in animals with involuting mammary glands by administering recombinant cytokines” (American Cyanamid Company, priority 1992, dated 1994):

B1: recombinant bovine granulocyte macrophage colony stimulating factor (protein, UniProt P11052 18-143, looked up)
Granulocyte-macrophage …: APTRPPNTATRPWQHVDAIKEALSLLNHSSDTDAVMNDTEVVSEKFDSQEPTCLQTRLKLYKNGLQGSLTSLMGSLTMMATHYEKHCPPTPETSCGTQFISFKNFKEDLKEFLFIIPFDCWEPAQK

Tests used:
S. aureus [1] = assay: Therapy of established S. aureus mastitis infections; assay type: in vivo, S. aureus (in lactating Holstein dairy cattle)
Procedure: The percentage of quarters clearing the infection for greater than 1 milking (RESPONDING), as compared to the percentage of quarters which actually cure their infections (CURE) is a measure of the failure of the host cells to kill the bacteria. The relapse rate is the greatest for r-BoIL-2 (combined relapse rate of 40% for the 10 mg dose X's 3). […] Furthermore, if activation of the host cells is effective, as indicated by the r-BoIL-2 and r-BoGM-CSF, then a combination therapy with r-BoIL-1 or antibiotics is useful.
^1 S. aureus infections are established 2-3 weeks prior to treatment.
Treatments are administered after the AM or PM milking by 1-3 successive
intramammary infusions. A total of 120 mammary glands from 28 different
lactating Holstein dairy cattle are used. Recombinant bovine
interleukin1(IL-1) and interleukin2(IL-2) are obtained from IMMUNEX Corp.
Seattle, WA. Na cephapirin is prepared is PBS; and CefaLak ®
(BristolMeyers) is used according to package# insert instructions.
^2 Cytokines are infused intramammary through the teat canal after th
PM milking at the indicated intervals. The total dose is delivered in a
total volume of 10 ml of sterile PBS. The biological activity of rBoIL-1
and rBoIL-2 is 32,000 Units/μg and 22,000 Units/μg, respectively. A
total dose per infusion 200 mg of Na cephapirin and CefaLak ® is
administered after consecutive PM and AM milkings, according to described
^3 The % RESPONDING = quarters which transiently (> 1 milking) are
free of S. aureus divided by the total number of quarters treated.
^4 The % CURED QUARTERS = # of quarters which clear their infection
and remain free of S. aureus divided by the total number of quarters
treated. Infections are considered to have relapsed if there are > 1 CFUs
from three consecutive AM milkings, or > 20 CFUs for two consecutive afte
therapy at anytime during the 14 day monitoring period.
^5 The % RELAPSE = [1 - {[…]}] ×

milk PMNs [2] = assay: Quantity of milk PMNs after intramammary infusion; assay type: in vivo, bovine (Holstein dairy cattle)
Procedure: (§1) FIGS. 2(A-I): Quantity and Quality of Milk PMNs from Mammary Glands Infused with r-BolL-1 or r-BoIL-2
(§2) A total of 12 mammary glands from normal lactating Holstein dairy cattle are infused through the teat canal with either 200 μg of r-BoIL-1; 2 mg of r-BoIL-2; or 1 mg of r-BoGM-CSF. Milk samples are collected and the number of viable somatic cells counted on a Coulter® ZM with a C256 Channelyzer. The data is expressed as the somatic cell count per ml of milk sampled at 16, 40, 64 and 88 hours after infusion for r-BoIL-1 (A); r-BoIL-2 (D); or r-BoGM-CSF(G). The total percentage of phagocytosis by milk PMNs (polymorphonuclear cells) is quantitatively measured by flow cytometry by measuring the percentage of cells ingesting 2μ fluorescent beads for r-BoIL-1 (B); r-BoIL-2(E); or r-BoGM-CSF(H). The total population is first gated by forward angle light scatter, FALS and 90° light scatter to only consider viable polymorphonuclear cells. The induction of superoxide after PMA (520.eta.g)stimulation is also monitored using a whole cell cytochrome-c reduction assay, for r-BoIL-1 (C); r-BoIL-2(F); or r-BoGM-CSF(I). PMNs from untreated milk could not be induced to produce superoxide, while peripheral blood PMNs are inducible in a range of 5-15 .eta.M O2 /Minute/10^7 PMNs.

Bovine Mammary Gland = assay: Dose response of bovine mammary gland to intramammary infusion: somatic cell influx into milk; assay type: in vivo, bovine (Holstein dairy cattle)
Procedure: FIG. 1: Dose Response of Bovine Mammary Gland to Intramammary Infusion of Recombinant Cytokines
Five fold serial dilutions of r-BolL-1 (recombinant bovine interleukin-1) from 312.5 μg to […]: r-BoIL-2 (recombinant bovine interleukin-2) from 40 mg to 0.1 mg: and r-BoGM-CSF (recombinant bovine granulocyte macrophage colony stimulating factor) from 0.2 mg to […] are administered at time 0 into 3-4 mammary glands from normal lactating Holstein dairy cattle. A total of 54 mammary gland quarters, 3-4 per group, are infused through the teat canal with various concentrations of recombinant bovine cytokines after the morning milking. Milk samples are collected and the number of viable somatic cells counted on a Coulter® ZM with a C256 Channelyzer. The data is expressed as the somatic cell count per ml of milk
These doses are guidelines for quantitative induction of somatic cells, but significant beneficial qualitative changes can be induced with lower doses. The specific biological activity for r-BoIL-1 as a chemoattractant is approximately 10,000 fold greater than r-BoIL-2, although the in vitro specific bioactivities are equivalent. Active IL-2 inhibition or decreased biostability in milk might explain this discrepancy. The peak number of cells after r-BoIL-1 infusion with a maximal tolerable dose is 4-5 fold greater than r-BoIL-2. The kinetics of PMN migration into the mammary gland is such that migration occurs 8- 24 hours sooner for r-BoIL-1 infusions […] the BolL-2 infusion depending upon the dose. The dominant cell type after r-BoIL-1 or r-BoIL-2 infusion is PMNs.

milk PMNs [3] = assay: Inducible superoxide of milk PMNs after PMA stimulation (cytochrome-c reduction); assay type: in vivo, bovine (Holstein dairy cattle); details: r-BoGM-CSF, vs resident PMNs, FIG. 2I
Procedure: as §1, §2

milk PMNs [4] = assay: Phagocytosis of fluorescent beads by milk PMNs (flow cytometry) after intramammary infusion; assay type: in vivo, bovine (Holstein dairy cattle); details: FIG. 2H
Procedure: as §1, §2

S. aureus [5] = assay: Prevention of S. aureus mastitis in lactating animals; assay type: in vivo, S. aureus (in lactating Holstein dairy cattle); details: for % CONTROL / % INFECTED: 1 mg, vs Control 2 (30 CFUs)
Excerpt: This maximal protection correlates with the peak quantitative biological response for this cytokine. […] This also correlates with the peak quantitative biological response of this cytokine and also marks the qualitative increase in phagocytosis and inducible superoxide, FIG. 2D & 2E.
^1 Single intramammary infusion administered after the PM milking. A
total of 100 mammary glands from 22 different lactating Holstein dairy
^2 All glands are free of bacteria on 5 successive samples after the
AM milking prior to the initial infusion.
^3 The total dose in mass of protein is indicated. The biological
^4 Infusions of cytokines were administerd simultaneously with S.
aureus 0, 24 or 48 hours proir to challenge with 30-200 CFUs of S.
^5 Individual quarters are considered cured if the milk samples remai
free of S. aureus. for 14 days after intramammary challenge with of S.
^6 The % Control = (1 - {% Infected After Therapy divided by Infected
in Control Quarters)} × 100.
*Quarters in Control 1 are challenged with 250 CFUs of S. aureus..
Quarters in Control 2 are challenged with 30 CFUs of S. aureus.

[6] = Specific biological activity of recombinant cytokine protein; details: mass of protein

| Molecule | % CURES (S. aureus [1]; 200 mg, interval 12 hrs) | % RELAPSE (S. aureus [1]; 200 mg, interval 12 hrs) | % RESPONSE (S. aureus [1]; 200 mg, interval 12 hrs) | relapse rate (S. aureus [1]; as quoted in text of Example 5) | quantitative changes in milk PMNs (milk PMNs [2]; as summarised in Example 4) | quantitative increase in milk PMNs (milk PMNs [2]; even with a 5 mg intramammary dose, FIG. 2G) | influx of cells into the mammary gland (Bovine Mammary Gland; intramammary infusion of up to 5 mg) | infiltration of somatic cells into the milk (Bovine Mammary Gland; intramammary infusion, lactating cattle, FIG. 1) | inducible superoxide production (milk PMNs [3]) | phagocytic ability of the cells in the milk of treated glands (milk PMNs [4]; 24 and 48 hours) | percent of cells which are phagocytic (milk PMNs [4]; r-BoGM-CSF) | increase in phagocytosis, duration (milk PMNs [4]; r-BoGM-CSF, up to 112 hrs) | % CONTROL (S. aureus [5]; -24 hrs) | % INFECTED (S. aureus [5]; -24 hrs) | % CONTROL (S. aureus [5]; -48 hrs) | % INFECTED (S. aureus [5]; -48 hrs) | protection from S. aureus (S. aureus [5]; administered 24 and 48 hours prior to challenge) | protection from subsequent S. aureus challenge (S. aureus [5]; intramammary infusion, Table 1) | biological activity [6] |
| --- | --- | --- | --- | --- | --- | --- | --- | --- | --- | --- | --- | --- | --- | --- | --- | --- | --- | --- | --- |
| CC(=O)OCC1=C(C(=O)O)N2C(=O)[C@@H](NC(=O)CSc3ccncc3)[C@H]2SC1 [Na Cephapirin, sodium cephapirin, reference compound] | 42% | 51% | 86% | 57% | – | – | – | – | – | – | – | – | – | – | – | – | – | – | – |
| B1 | – | – | – | – | only minor quantitative changes in milk PMNs | fails to elicit any significant quantitative increase in milk PMNs | fails to elicit any significant influx of cells into the mammary gland | no significant chemoattractant activity | increased over the resident PMNs | increase phagocytic ability | enhanced | maintained above pre-infusion levels for up to 112 hrs | 76% | 20% | 76% | 20% | good protection from S. aureus | capable of protecting the host from subsequent S. aureus challenge | 38,000 Units/μg |
